Results from US20050054090A1 (Scripps Research, published 2005).

Target: T1, murine IA^d MHC class II heterodimer expressed on the surface of Drosophila S2 cells (murine, UniProt P04228 24-256; P01921 28-265)
T1 construct: whole, on cells; Expressed without peptide on Drosophila S2 cells, alone or with accessory molecules; also called H2-A^d; recombinant MHC class II
T1 sequence (MHC II alpha, looked up): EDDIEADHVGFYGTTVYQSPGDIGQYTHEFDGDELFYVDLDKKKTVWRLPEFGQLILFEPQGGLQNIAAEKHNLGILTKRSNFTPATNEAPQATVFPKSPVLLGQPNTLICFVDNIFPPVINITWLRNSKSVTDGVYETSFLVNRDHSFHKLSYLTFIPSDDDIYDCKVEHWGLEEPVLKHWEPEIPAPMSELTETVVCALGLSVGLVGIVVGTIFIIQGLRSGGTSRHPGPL
T1 sequence (MHC II beta, looked up): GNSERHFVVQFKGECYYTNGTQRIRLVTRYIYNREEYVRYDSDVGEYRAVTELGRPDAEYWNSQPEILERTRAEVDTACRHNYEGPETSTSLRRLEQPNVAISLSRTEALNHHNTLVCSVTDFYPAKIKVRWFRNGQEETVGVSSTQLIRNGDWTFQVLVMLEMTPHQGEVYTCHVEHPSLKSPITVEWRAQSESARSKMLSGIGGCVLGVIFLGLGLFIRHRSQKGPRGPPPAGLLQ
Experiment: inferred by the filing from OVA-peptide-dose-dependent T cell proliferation with peptide-loaded Drosophila APC; no direct binding assay
Experimental: Proliferation is assayed as described in Example 5. The proliferation is measured in counts per minute (cpm)×1000 as plotted on the Y-axis against increasing concentrations of OVA peptide in μM on the X-axis. […] Proliferative responses with recombinant MHC class II alone are shown in the line having closed circles. Those with MHC class II combined with either costimulatory molecules B7.1 or B7.2 are shown respectively with lines having open and closed squares.
The effect of peptide presentation in the presence of MHC class II with and without accessory molecules, B7.1, B7.2 or B7.2 plus ICAM-1, was first assessed in a proliferation assay performed as described by Webb et al., Cell, 63:1249 (1990). Briefly, 5×10⁴ CD4⁺ T cells were cultured in microtiter wells with 5×10⁴ Drosophila cells in 300 μl of culture medium. Eighteen hours prior to harvesting, 100 μl of supernatant were removed for cytokine analysis and 1 μCi of ³H-thymidine was added to each well. At the times indicated (3, 4 or 5 days), the wells were individually harvested onto glass fiber filters and counted in a liquid scintillation counter.

B1: ovalbumin323-339 (OVA) peptide (peptide)
peptide: ISQAVHAAHAEINEAGR
notes: Chemically synthesized by T-BOC chemistry and added to the cultures; also called ovalbumin peptide 323-339
binding result: binds
